Data reported in the RNAGym collection of RNA variant scans (doi:10.1021/acssynbio.7b00057).

B1: Pistol ribozyme (parent)
chain: GGGUCGUUGUUCCAUAAUCGCGUGGAUAUGGCACGCAAGUUUCUACCGGGCACCGUAAAUGUCCGACUGGAGCCGUUCGGGCGGCUAUAAACAGACCUCAGGCCCGAAGCGUGGCGGCACCUGCCGCCGGUGGUAAAAAAGAUCGGAAGAGCACACGUCU

Variants of: B1
Assay: aptazyme ON/OFF ratio, guanine; higher = stronger switching; co-transcriptional cleavage with and without guanine

Compared with U7C U8G G9A U10A U11C C13U, U7C U8G G9A U10A U11C C13A is lower in “aptazyme ON/OFF ratio” value: 1.04 for the first, 1.03 for the second.

Going from U7C U8G G9A U10A U11C C13G to U7C U8G G9A U10A U11G C12G C13A, the “aptazyme ON/OFF ratio” value rises from 1.02 to 1.19.

Compared with U7C U8G G9A U10A U11G C12G C13G, U7C U8G G9A U10A U11G C12G C13U is lower in “aptazyme ON/OFF ratio” value: 1.39 for the first, 1.33 for the second.

First: U7C U8C U10G U11C C13A
Second: U7C U8C U10G U11C C13G
The “aptazyme ON/OFF ratio” value of the first is higher: 1.37 for the first, 1.16 for the second.

First: U7C U8C U10G U11C C13U
Second: U7C U8G G9A U10C C12A C13G
The “aptazyme ON/OFF ratio” value of the first is higher: 1.16 for the first, 1.09 for the second.

First: U7C U8G G9A U10C C12A C13U
Second: U7C U8G G9A U10C C12A C13A
The “aptazyme ON/OFF ratio” value of the first is higher: 1.14 for the first, 1.13 for the second.

First: U7C U8C U11A C12A C13A
Second: U7C U8C U11A C12A C13U
The “aptazyme ON/OFF ratio” value of the first is lower: 1.2 for the first, 1.31 for the second.

Going from U7C U8C U11A C12A C13G to U7C U8G G9A U10A U11G C12G, the “aptazyme ON/OFF ratio” value rises from 1.15 to 1.25.

Compared with U7C U8G G9A U10A U11G C12A, U7C U8G G9A U10A U11G C12U is higher in “aptazyme ON/OFF ratio” value: 1.06 for the first, 1.38 for the second.

Going from U7C U8C U10C U11G C13A to U7C U8C U10C U11G C13G, the “aptazyme ON/OFF ratio” value rises from 1.2 to 1.24.

Going from U7C U8C U10C U11G C13U to U7C U8C U11C C12U C13G, the “aptazyme ON/OFF ratio” value falls from 1.34 to 1.2.

Going from U7C U8C U11C C12U C13U to U7C U8C U11C C12U C13A, the “aptazyme ON/OFF ratio” value falls from 1.43 to 1.37.

First: U7C U8C U10G U11A C12G C13A
Second: U7C U8C U10G U11A C12G C13G
The “aptazyme ON/OFF ratio” value of the first is lower: 1.08 for the first, 1.11 for the second.

Compared with U7C U8C U10G U11A C12G C13U, U7C U8G G9A U10C U11A C12A C13G is lower in “aptazyme ON/OFF ratio” value: 1.09 for the first, 1.08 for the second.

First: U7C U8G G9A U10C U11A C12A C13A
Second: U7C U8G G9A U10C U11A C12A C13U
The “aptazyme ON/OFF ratio” value of the first is higher: 1.11 for the first, 1.07 for the second.

Compared with U7C U8G G9A U10C U11C C13U, U7C U8G G9A U10C U11C C13G is lower in “aptazyme ON/OFF ratio” value: 1.02 for the first, 1.01 for the second.

Going from U7C U8G G9A U10C U11C C13A to U7C U8G C13A, the “aptazyme ON/OFF ratio” value rises from 1.02 to 1.25.

First: U7C U8G C13U
Second: U7C U8G C13G
The “aptazyme ON/OFF ratio” value of the first is higher: 2.24 for the first, 1.16 for the second.

Going from U7C U8C U11A C12G C13A to U7C U8C U11A C12G C13G, the “aptazyme ON/OFF ratio” value falls from 1.13 to 1.12.

Going from U7C U8C U11A C12G C13U to U7C U8C U10G U11A C12U C13U, the “aptazyme ON/OFF ratio” value rises from 1.12 to 1.21.

First: U7C U8C U10G U11A C12U C13G
Second: U7C U8C U10G U11A C12U C13A
The “aptazyme ON/OFF ratio” value of the first is lower: 1.1 for the first, 1.16 for the second.

Compared with U7C U8G G9A U10C U11A C13G, U7C U8G G9A U10C U11A C13U is higher in “aptazyme ON/OFF ratio” value: 1.07 for the first, 1.09 for the second.

First: U7C U8G G9A U10C U11A C13A
Second: U7C U8C U11C C12A C13A
The “aptazyme ON/OFF ratio” value of the first is lower: 1.12 for the first, 1.3 for the second.

First: U7C U8C U11C C12A C13U
Second: U7C U8C U11C C12A C13G
The “aptazyme ON/OFF ratio” value of the first is higher: 1.28 for the first, 1.18 for the second.

Going from U7C U8G G9A C12U C13G to U7C U8G G9A C12U C13U, the “aptazyme ON/OFF ratio” value falls from 1.35 to 1.22.

First: U7C U8G G9A C12U C13A
Second: U7C U8G G9A U10A U11A C13G
The “aptazyme ON/OFF ratio” value of the first is higher: 1.16 for the first, 1.07 for the second.

U7C U8G G9A U10A U11A C13A and U7C U8G G9A U10A U11A C13U are the same in “aptazyme ON/OFF ratio” value: 1.12 for the first, 1.12 for the second.

Going from U7C U8G G9A U10C U11C to U7C U8G G9A U10C U11A, the “aptazyme ON/OFF ratio” value rises from 1.03 to 1.24.

Going from U7C U8G G9A U10C U11G to U7C U8G G9A U10G C12G C13U, the “aptazyme ON/OFF ratio” value falls from 1.23 to 1.17.

Going from U7C U8G G9A U10G C12G C13A to U7C U8G G9A U10G C12G C13G, the “aptazyme ON/OFF ratio” value falls from 1.25 to 1.1.

Compared with U7C U8G G9A U10C U11C C12G, U7C U8G G9A U10C U11C C12U is lower in “aptazyme ON/OFF ratio” value: 1.03 for the first, 1.01 for the second.

Going from U7C U8G G9A U10C U11C C12A to U7C U8C U11G C12G, the “aptazyme ON/OFF ratio” value rises from 1.05 to 1.33.

Compared with U7C U8C U11G C12A, U7C U8C U11G C12U is lower in “aptazyme ON/OFF ratio” value: 1.35 for the first, 1.25 for the second.

Going from U7C U8G G9A U10G U11A C13U to U7C U8G G9A U10G U11A C13G, the “aptazyme ON/OFF ratio” value rises from 1.04 to 1.1.

Compared with U7C U8G G9A U10G U11A C13A, U7C U8C U10G C13G is lower in “aptazyme ON/OFF ratio” value: 1.09 for the first, 1.08 for the second.

First: U7C U8C U10G C13A
Second: U7C U8C U10G C13U
The “aptazyme ON/OFF ratio” value of the first is higher: 1.13 for the first, 1.12 for the second.

First: U7C U8G G9A U10A C12U C13U
Second: U7C U8G G9A U10A C12U C13A
The “aptazyme ON/OFF ratio” value of the first is higher: 1.27 for the first, 1.18 for the second.

Compared with U7C U8G G9A U10A C12U C13G, U7C U8C U10G U11G C12A C13G is lower in “aptazyme ON/OFF ratio” value: 1.17 for the first, 1.11 for the second.

First: U7C U8C U10G U11G C12A C13A
Second: U7C U8C U10G U11G C12A C13U
The “aptazyme ON/OFF ratio” value of the first is higher: 1.14 for the first, 1.13 for the second.

Compared with U7C U8C U11A C12G, U7C U8C U11A C12A is higher in “aptazyme ON/OFF ratio” value: 1.14 for the first, 1.34 for the second.

Going from U7C U8C U11A C12U to U7C U8G G9A U10C U11A C12G C13A, the “aptazyme ON/OFF ratio” value falls from 1.16 to 1.07.

Going from U7C U8G G9A U10C U11A C12G C13U to U7C U8G G9A U10C U11A C12G C13G, the “aptazyme ON/OFF ratio” value falls from 1.11 to 1.09.
